Laboratory results: patent publication US20190077860A1 (EISAI R AND D MANAGEMENT, published 2019)

Legend:
[1] = molecular target: T1, mouse EphA4 extracellular region-SEAP-His protein (mouse); assay: competition ELISA, competitor mouse Ephrin A1-Fc
Procedure: (§1) Antibody A obtained in Example 1 was evaluated for its inhibitory activity against the binding between mouse EphA4 and its mouse ligand according to the following steps. Each well of a 96-well plate (Nunc) was coated with an anti-alkaline phosphatase antibody (Thermo Fisher Scientific). After incubation overnight at 4° C., each well was blocked with 1% BlockAce (DS Pharma Biomedical) at room temperature for 1 hour. After washing with 0.05% Tween 20/PBS (Thermo Fisher Scientific) three times, the mouse EphA4 extracellular region-SEAP-His protein obtained by the method of Example 1 was added (final concentration: 10 nM) to each well and incubated at room temperature for 1 hour. After washing three times, ligands and serially diluted antibody A (0, 0.001, 0.003, 0.01, 0.03, 0.1, 0.3, 1,3, 10, 30, 100, 300, and 1000 nM) or a known EphA4 inhibitor KYL peptide ([…], 0, 0.003, 0.01, 0.03, 0.1, 0.3, 1, 3, 10, 30, and 100 μM, its synthesis was outsourced to Hokkaido System Science) or compound 1 (0, 0.03, 0.1, 0.3, 1,3, 10, 30, 100, 300, and 1000 μM, Formula 1, Matrix Scientific) were added to each well. The ligands used were mouse Ephrin A1-Fc chimera (R&D Systems, final concentration: 20 nM) and mouse Ephrin B2-Fc chimera (R&D Systems, final concentration: 0.6 nM). […] The absorbance at 450 nm was read using a microplate reader (Molecular Devices).

[2] = molecular target: T1, mouse EphA4 extracellular …; assay: competition ELISA, mouse ligands
Procedure: as §1

[3] = molecular target: T2, human EphA4 extracellular region-SEAP-His protein (human, UniProt P54764 20-547); assay: competition ELISA, competitor human Ephrin B3-Fc
T2 construct: also called hEphA4-SEAP-His
Procedure: Antibody A obtained in Example 1 was evaluated for its inhibitory activity against the binding between human EphA4 and its human ligand according to the following steps. Each well of a 96-well plate (Nunc) was coated with an anti-alkaline phosphatase antibody (Thermo Fisher Scientific). After incubation overnight at 4° C., each well was blocked with 1% BlockAce (DS Pharma Biomedical) at room temperature for 1 hour. After washing with 0.05% Tween 20/PBS (Thermo Fisher Scientific) three times, the human EphA4 extracellular region-SEAP-His protein obtained by the method of Example 1 was added (final concentration: 10 nM) to each well and incubated at room temperature for 1 hour. After washing three times, ligands and serially diluted antibody A (0, 0.003, 0.01, 0.03, 0.1, 0.3, 1, 3, 10, 30, 100, 300, 1000, and 3000 nM) or an EphA4 inhibitor KYL peptide ([…], 0, 0.003, 0.01, 0.03, 0.1, 0.3, 1, 3, 10, 30, 100, 300, 1000, and 3000 μM, its synthesis was outsourced to Toray Research Center) were added to each well. The ligands used were biotinylated human Ephrin A5-Fc chimera (R&D Systems, final concentration: 0.7 nM) and biotinylated human Ephrin B3-Fc chimera (R&D Systems, final concentration: 2.3 nM). […] The absorbance at 450 nm was read using a microplate reader (Molecular Devices or PerkinElmer). […]

[4] = molecular target: T1, mouse EphA4 extracellular …; assay: competition ELISA, competitor biotinylated mouse Ephrin B2-Fc; alternative value in brackets
Procedure: Antibody A-Fab and antibody A-F(ab′)₂ obtained in Example 5 were evaluated for their inhibitory activity against the binding between EphA4 and its ligand according to the following steps. Each well of a 96-well plate (Nunc) was coated with an anti-alkaline phosphatase antibody (Thermo Fisher Scientific). After incubation overnight at 4° C., each well was blocked with 1% BlockAce (DS Pharma Biomedical) at room temperature for 1 hour. After washing with 0.05% Tween 20/PBS (Thermo Fisher Scientific) three times, the mouse EphA4 extracellular region-SEAP-His protein obtained by the method of Example 1 was added (final concentration: 10 nM) to each well and incubated at room temperature for 1 hour. After washing three times, a ligand and serially diluted antibody A (0, 0.003, 0.01, 0.03, 0.1, 0.3, 1, 3, 10, 30, 100, 300, 1000, and 3000 nM), antibody A-Fab (0, 0.003, 0.01, 0.03, 0.1, 0.3, 1, 3, 10, 30, 100, 300, 1000, and 3000 nM), antibody A-F(ab′)₂ (0, 0.003, 0.01, 0.03, 0.1, 0.3, 1, 3, 10, 30, 100, 300, 1000, and 3000 nM), or the EphA4 inhibitor KYL peptide ([…], 0, 0.0003, 0.001, 0.003, 0.01, 0.03, 0.1, 0.3, 1, 3, 10, 30, 100, 300, 1000, and 3000 μM, its synthesis was outsourced to Toray Research Center) were added to each well. […] The absorbance at 450 nm was read using a microplate reader (Molecular Devices or PerkinElmer). […]

T1 sequence (chain, as listed by the source limits assumed): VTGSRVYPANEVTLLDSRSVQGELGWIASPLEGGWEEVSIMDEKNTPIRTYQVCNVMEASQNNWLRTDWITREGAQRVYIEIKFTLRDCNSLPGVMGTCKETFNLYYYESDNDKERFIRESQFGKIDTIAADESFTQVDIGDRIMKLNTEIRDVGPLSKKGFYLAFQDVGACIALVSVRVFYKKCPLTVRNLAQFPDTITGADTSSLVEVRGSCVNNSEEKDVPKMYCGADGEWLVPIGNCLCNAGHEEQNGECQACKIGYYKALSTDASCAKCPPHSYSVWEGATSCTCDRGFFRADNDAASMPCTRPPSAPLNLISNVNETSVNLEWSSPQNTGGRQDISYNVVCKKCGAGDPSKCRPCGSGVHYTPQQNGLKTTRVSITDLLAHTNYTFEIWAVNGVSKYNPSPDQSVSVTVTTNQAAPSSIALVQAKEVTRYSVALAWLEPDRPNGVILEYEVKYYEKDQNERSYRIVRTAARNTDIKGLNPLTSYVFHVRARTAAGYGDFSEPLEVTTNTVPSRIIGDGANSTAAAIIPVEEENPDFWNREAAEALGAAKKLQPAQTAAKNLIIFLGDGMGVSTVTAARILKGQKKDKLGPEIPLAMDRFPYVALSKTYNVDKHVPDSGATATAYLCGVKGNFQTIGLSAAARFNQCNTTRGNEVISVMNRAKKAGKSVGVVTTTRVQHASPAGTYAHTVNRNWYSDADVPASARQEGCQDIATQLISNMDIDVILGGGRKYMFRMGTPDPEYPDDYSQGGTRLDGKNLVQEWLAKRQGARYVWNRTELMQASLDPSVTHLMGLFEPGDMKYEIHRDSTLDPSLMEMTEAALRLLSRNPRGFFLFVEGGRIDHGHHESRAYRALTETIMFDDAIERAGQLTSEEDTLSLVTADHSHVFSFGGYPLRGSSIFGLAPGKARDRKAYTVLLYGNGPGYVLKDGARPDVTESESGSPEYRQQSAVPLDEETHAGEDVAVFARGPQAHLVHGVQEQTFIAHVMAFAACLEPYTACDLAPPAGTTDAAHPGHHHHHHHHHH
T2 sequence (P54764 20-547): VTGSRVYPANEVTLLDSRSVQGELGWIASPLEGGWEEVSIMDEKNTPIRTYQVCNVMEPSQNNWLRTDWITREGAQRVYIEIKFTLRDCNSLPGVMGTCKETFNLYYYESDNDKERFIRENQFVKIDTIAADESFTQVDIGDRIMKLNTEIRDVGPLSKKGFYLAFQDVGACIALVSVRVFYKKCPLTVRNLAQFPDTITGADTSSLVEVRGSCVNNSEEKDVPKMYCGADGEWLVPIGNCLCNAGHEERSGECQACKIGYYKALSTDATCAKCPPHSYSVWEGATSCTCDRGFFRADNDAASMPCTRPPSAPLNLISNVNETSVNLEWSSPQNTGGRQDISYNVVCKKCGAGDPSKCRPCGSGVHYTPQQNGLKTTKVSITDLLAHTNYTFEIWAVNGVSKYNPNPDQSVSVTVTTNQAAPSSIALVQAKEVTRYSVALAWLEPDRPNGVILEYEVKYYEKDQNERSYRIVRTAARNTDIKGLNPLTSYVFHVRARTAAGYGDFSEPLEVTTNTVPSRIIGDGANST

B1: antibody A (antibody, mouse IgG1, kappa, V domains shown)
VH: QIQLVQSGPELKKPGETVKISCKASGYTFTDYSMHWVKQAPGKGLKWMGWINTETGEPTYADDFKGRFAFSLETSASTAYLQINNLKNEDTATYFCARIPLYYYGSRYWYFDVWGAGTTVTVSS
VL: DIQMTQSPASLSVSVGETVTITCRASENIYRNLAWYQQKQGKSPQLLVYAATNLADGVPSRFSGSGSGTQYSLKINSLQSEDFGSYYCQHFWGTPWTFGGGTKLEIKR
notes: mouse IgG1 heavy chain, kappa light chain; purified from hybridoma supernatant; also called anti-EphA4 monoclonal antibody; antibody A-IgG
- IC50 [1]: ~1.2 nM
- fold activity against KYL peptide [2]: ≥ 1000 fold
- IC50 [3]: ~1.9 nM
- IC50 [4]: 3.6 nM
